The record followed here is patent publication US20250327113A1 (ESPERANCE PHARMACEUTICALS, published 2025).

For the experiment, the target named is T1, human LHRH receptor (human, UniProt P30968 1-328).
T1 sequence: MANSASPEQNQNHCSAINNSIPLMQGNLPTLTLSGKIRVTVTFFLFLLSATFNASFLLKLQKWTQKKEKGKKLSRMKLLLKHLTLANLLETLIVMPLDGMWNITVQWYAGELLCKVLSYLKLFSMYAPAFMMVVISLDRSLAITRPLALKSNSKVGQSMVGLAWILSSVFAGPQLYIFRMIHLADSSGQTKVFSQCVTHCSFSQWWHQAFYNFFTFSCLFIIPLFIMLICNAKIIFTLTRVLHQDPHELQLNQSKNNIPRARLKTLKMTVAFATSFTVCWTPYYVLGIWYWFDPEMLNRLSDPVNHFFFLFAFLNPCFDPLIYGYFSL
The experiment can be described thus: cell-based or functional assay.

For the molecule KFAKFAKKFAKFAKKFAKQHWSYGLRPG [EP-100 (KFAKFAKKFAKFAKKFAKQHWSYGLRPG)], the “cytotoxicity IC50, MTT assay, 24 h, AN3-CA human endometrial cancer cells” value came to 3.3 µM; the “cytotoxicity IC50, MTT assay, 24 h, LNCaP prostate cancer cells” value turned out to be 1.5 µM; the “cytotoxicity IC50, MTT assay, 24 h, MDA-MB-231 human breast cancer cells” value was 5.5 µM; the “cytotoxicity IC50, MTT assay, 24 h, MDA-MB-435S breast cancer cells” value was 0.8 µM. The “cytotoxicity IC50, MTT assay, 24 h, OVCAR-3 ovarian cancer cells” value came out at 3 µM and the “cytotoxicity IC50, MTT assay, 24 h, PC-3 prostate cancer cells” value is 5.5 µM.
